{"source": "patent US20140072613A1", "about": "“Compositions and Methods for Treating Cutaneous Scarring” (priority 2012, published 2014)", "assay_in_all_cases": "biochemical", "assay_type_in_all_cases": "biochemical", "key": {"[1]": {"target": "266 human kinases (Homo sapiens, UniProt O75676)", "sequence (O75676 whole entry)": "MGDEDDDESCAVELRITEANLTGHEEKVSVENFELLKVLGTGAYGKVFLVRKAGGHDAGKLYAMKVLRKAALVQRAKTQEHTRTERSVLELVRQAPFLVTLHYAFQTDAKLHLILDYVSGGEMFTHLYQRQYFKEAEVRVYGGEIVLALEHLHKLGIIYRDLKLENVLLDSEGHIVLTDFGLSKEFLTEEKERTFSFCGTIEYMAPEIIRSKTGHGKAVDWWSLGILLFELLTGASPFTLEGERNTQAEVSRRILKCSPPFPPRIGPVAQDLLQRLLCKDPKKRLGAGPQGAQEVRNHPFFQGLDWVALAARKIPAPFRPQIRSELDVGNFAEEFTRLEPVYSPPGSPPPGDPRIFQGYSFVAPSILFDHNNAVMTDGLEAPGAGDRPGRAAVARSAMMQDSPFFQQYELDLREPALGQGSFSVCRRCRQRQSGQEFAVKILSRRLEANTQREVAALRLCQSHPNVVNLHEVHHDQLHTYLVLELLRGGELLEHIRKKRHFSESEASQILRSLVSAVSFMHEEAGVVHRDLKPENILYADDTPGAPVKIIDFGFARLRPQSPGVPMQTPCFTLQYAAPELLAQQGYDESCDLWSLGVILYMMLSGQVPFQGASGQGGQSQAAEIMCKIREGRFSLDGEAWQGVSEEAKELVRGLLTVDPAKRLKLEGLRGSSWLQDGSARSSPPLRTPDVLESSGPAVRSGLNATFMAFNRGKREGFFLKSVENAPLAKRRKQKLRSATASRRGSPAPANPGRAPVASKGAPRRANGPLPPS", "conditions": "MSK2(h); 100 μM", "outline": "(§1)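 Radiometric filter-binding format: a positively charged substrate takes up radiolabelled phosphate from ATP unless the kinase is inhibited, then is captured on a negatively charged filter membrane. Counts from scintillation are expressed relative to a 100% activity control.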"}, "[2]": {"target": "266 human kinases (Homo sapiens, UniProt P00533)", "conditions": "EGFR(h); 100 μM", "outline": "as §1"}, "[3]": {"target": "266 human kinases (Homo sapiens, UniProt P07949)", "conditions": "Ret(h); 100 μM", "outline": "as §1"}, "[4]": {"target": "T1, 266 human kinases (Homo sapiens, UniProt P54753)", "T1 sequence (P54753 34-998)": "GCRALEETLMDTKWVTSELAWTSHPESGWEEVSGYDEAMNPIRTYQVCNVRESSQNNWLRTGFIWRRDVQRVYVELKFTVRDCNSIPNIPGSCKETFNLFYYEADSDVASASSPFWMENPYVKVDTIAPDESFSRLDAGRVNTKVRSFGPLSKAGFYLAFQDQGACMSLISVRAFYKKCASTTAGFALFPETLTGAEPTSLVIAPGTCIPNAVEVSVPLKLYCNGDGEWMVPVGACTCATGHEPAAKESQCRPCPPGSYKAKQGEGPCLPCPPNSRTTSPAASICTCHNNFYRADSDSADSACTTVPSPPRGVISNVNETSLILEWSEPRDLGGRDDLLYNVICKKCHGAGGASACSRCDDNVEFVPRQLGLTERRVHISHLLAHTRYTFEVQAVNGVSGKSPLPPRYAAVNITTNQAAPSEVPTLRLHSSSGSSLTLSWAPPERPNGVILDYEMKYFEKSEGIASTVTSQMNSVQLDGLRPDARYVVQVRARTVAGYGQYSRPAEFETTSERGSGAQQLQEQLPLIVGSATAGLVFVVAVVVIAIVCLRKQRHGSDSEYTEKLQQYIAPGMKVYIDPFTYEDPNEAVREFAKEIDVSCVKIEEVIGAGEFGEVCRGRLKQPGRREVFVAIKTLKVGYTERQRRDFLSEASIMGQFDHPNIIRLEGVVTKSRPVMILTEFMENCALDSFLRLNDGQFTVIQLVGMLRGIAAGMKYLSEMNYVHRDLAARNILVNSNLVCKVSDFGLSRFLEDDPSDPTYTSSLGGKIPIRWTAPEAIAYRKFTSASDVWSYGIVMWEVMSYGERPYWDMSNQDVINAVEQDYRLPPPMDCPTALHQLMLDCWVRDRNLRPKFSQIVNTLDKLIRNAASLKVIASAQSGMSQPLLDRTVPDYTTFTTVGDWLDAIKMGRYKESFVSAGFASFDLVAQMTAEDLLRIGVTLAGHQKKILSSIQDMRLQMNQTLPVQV", "conditions": "EphB3(h); 100 μM", "outline": "as §1"}, "[5]": {"target": "T2, 266 human kinases (Homo sapiens, UniProt Q06418)", "T2 sequence (Q06418 41-890)": "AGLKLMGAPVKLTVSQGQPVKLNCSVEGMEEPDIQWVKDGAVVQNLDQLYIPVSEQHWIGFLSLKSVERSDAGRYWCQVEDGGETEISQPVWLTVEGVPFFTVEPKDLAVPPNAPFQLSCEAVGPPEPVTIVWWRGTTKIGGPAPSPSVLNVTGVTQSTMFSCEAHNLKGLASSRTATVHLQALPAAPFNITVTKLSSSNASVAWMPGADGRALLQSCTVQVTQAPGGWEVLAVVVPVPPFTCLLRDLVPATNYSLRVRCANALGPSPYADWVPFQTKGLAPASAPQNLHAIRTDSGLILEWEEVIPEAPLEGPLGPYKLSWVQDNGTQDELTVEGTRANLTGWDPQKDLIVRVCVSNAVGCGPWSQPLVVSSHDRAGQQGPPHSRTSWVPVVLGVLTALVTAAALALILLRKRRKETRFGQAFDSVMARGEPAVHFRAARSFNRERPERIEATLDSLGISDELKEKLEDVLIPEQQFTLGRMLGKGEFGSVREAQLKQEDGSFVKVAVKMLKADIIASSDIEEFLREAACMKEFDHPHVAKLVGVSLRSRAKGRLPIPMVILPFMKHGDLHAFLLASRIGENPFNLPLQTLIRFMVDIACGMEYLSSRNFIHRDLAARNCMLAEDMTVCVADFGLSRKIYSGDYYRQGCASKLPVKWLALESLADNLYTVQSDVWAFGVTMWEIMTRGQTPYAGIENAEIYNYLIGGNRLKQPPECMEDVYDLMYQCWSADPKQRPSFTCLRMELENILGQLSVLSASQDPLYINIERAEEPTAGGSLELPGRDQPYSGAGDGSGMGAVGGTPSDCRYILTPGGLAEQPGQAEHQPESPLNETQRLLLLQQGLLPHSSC", "conditions": "Rse(h); 100 μM", "outline": "as §1"}, "[6]": {"target": "T3, 266 human kinases (Homo sapiens, UniProt Q08881)", "T3 sequence (Q08881 1-620)": "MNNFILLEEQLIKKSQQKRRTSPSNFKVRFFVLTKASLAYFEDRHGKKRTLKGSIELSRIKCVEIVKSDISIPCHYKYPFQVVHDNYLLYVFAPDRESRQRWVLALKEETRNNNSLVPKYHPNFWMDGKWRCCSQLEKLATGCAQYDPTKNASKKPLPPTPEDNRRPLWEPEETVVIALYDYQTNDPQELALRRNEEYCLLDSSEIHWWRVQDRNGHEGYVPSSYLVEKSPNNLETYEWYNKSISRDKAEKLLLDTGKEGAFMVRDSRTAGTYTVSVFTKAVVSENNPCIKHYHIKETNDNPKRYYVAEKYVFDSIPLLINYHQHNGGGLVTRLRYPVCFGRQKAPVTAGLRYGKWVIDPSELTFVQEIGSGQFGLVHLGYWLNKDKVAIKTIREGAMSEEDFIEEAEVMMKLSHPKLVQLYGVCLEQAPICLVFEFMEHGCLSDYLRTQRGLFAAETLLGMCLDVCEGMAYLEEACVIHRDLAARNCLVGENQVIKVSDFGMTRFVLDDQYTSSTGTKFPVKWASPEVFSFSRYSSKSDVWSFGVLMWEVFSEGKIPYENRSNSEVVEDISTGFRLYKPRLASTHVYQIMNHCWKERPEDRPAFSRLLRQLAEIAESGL", "conditions": "Itk(h); 100 μM", "outline": "as §1"}, "[7]": {"target": "266 human kinases (Homo sapiens, UniProt Q86V86)", "conditions": "Pim-3(h); 100 μM", "outline": "as §1"}, "[8]": {"target": "266 human kinases (Homo sapiens, UniProt Q9UK32)", "sequence (Q9UK32 whole entry)": "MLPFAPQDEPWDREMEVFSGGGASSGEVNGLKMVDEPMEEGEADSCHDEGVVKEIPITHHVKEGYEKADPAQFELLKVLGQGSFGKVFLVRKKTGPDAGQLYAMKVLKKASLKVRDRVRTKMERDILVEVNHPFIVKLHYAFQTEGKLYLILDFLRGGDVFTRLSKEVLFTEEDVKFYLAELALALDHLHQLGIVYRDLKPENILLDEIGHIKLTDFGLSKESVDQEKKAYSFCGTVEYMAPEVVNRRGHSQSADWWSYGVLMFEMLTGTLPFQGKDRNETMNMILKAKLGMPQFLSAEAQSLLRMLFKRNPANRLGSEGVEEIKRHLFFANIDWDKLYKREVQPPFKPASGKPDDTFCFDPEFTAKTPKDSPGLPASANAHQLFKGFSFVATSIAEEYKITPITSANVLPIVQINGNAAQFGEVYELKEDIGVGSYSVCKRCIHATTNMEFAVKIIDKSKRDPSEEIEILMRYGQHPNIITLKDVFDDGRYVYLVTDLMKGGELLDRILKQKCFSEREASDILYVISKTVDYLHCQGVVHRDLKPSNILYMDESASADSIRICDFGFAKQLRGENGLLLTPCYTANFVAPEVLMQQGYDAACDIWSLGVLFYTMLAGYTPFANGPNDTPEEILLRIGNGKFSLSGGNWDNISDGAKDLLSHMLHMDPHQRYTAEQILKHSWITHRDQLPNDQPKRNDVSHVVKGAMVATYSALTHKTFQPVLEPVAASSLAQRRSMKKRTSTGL", "conditions": "Rsk4(h); 100 μM", "outline": "as §1"}}, "data": [{"sequence": "HRRIKAWLKKIKALARQLGVAA (mammal) [MMI-0500]", "values": [{"measurement": "% activity", "setting": "[1]", "result": 14, "unit": "%"}, {"measurement": "% activity", "setting": "[2]", "result": "−1", "unit": "%"}, {"measurement": "% activity", "setting": "[3]", "result": 174, "unit": "%"}, {"measurement": "% activity", "setting": "[4]", "result": 79, "unit": "%"}, {"measurement": "% activity", "setting": "[5]", "result": 63, "unit": "%"}, {"measurement": "% activity", "setting": "[6]", "result": 7, "unit": "%"}, {"measurement": "% activity", "setting": "[7]", "result": 37, "unit": "%"}, {"measurement": "% activity", "setting": "[8]", "result": 29, "unit": "%"}]}, {"sequence": "YARAAARQARAKALNRQLGVA (mammal) [MMI-0200]", "values": [{"measurement": "% activity", "setting": "[1]", "result": 88, "unit": "%"}, {"measurement": "% activity", "setting": "[2]", "result": 83, "unit": "%"}, {"measurement": "% activity", "setting": "[3]", "result": 96, "unit": "%"}, {"measurement": "% activity", "setting": "[4]", "result": 128, "unit": "%"}, {"measurement": "% activity", "setting": "[5]", "result": 88, "unit": "%"}, {"measurement": "% activity", "setting": "[6]", "result": 98, "unit": "%"}, {"measurement": "% activity", "setting": "[7]", "result": 94, "unit": "%"}, {"measurement": "% activity", "setting": "[8]", "result": 125, "unit": "%"}]}]}
